In patent US20250320284A1 (AC IMMUNE, published 2025):
Where a chain is given by its changes, count along the chain named.

T1: mouse ASC (mouse, UniProt Q9EPB4 1-193)
T1 construct: recombinant mASC in ELISA and SPR; endogenous ASC of J774.A1 cells in Western blot and immunofluorescence; also called mASC
T1 sequence: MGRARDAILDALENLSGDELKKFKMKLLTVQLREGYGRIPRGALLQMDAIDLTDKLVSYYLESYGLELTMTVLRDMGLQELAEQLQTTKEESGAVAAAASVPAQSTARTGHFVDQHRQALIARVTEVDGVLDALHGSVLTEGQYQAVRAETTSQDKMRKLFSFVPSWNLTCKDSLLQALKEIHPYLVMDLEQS

T2: CARD domain of human ASC (human, UniProt Q9ULZ3 107-195)
T2 construct: biotinylated in BLI; also called hCARD; human CARD
T2 sequence: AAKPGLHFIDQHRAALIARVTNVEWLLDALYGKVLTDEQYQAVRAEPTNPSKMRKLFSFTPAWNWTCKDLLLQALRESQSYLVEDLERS

B1: ACI-8016-2614C3B2-AB1 (antibody, V domains shown)
VH: QVQLQQSDAELVKPGASVKISCKVSGYALTDHSIHWMKQRPEQGLAWIGYMYPGDGSANYNDKFKGKATLTADISSSTAYMQLNSLTSEDSAVYFCTRPYYFGSSYDYFGYWGQGTTLTVSS
VL: DIQMNQSPSSLSASLGDTITITCHASQNINVWLSWYQQKPGNVPKLLIYKASKLHTGVSSNFSGSGSGTGFTLTISSLQPEDIGTYYCQQGQSYPYTFGGGTKLEIK
B2: ACI-8016-1112B3D7-AB1 (antibody, V domains shown)
VH: QVQLQQSGAELVRPGTSVKLSCKASGYTFTSYWMHWVKQRPGQGLEWIGGIDPSDSYTKYNQKFKAKATLTADTSSSTAYMQLSSLTSEDSAIFYCAREEASTVVAHWYFDVWGTGTTVTVSS
VL: DIVLTQSPATLSVTPGDSVSLSCRASQSISNNLHWYQQKSHESPRLLIKYTSQSISGIPSRFSGSGSGTDYTLSINSVETEDFGMYFCQQSNNWPYTFGGGTKLEIK
B3: ACI-8016-207E8B2-AB1 (antibody, V domains shown)
VH: QVQLQQSGAELAKPGASVKLSCKASGYTFTSYWMHWVKQRPGQGLEWIGYINPSSGYTKCNQKFKDKATLTADKSSSTAYMQLSSLTYEDSAVYYCVFPFDYDGFDYWGQGTTLTVSS
VL: DVLMTQTPLSLPVSLGDQASISCRSSQSIVHSNGNTYLEWYLQKPGQSPKLLIYKVSNRFSGVPDRFSGSGSGTVFTLKISRVEAEDLGVYYCFQDSHFPFTFGSGTKLEIK
B4: ACI-8016-17H1G2-AB1 (antibody, V domains shown)
VH: EVQLQQSGAELVRPGSSVKMSCKTSGFTFTSYGISWVIQRPEQGLEWIGYIYIRNGYTEYNEKFKGKATLTSDTSSNTAYMQLSNLASEDSAIYFCVRIHRRFFDYWGQGTTLTVSS
VL: DIQMTQTTSSLSASLGDRVTISCSASQGISNYLNWFQQKPNGTVRLLIYYTSSLHSGVPSRFSGSGSGTDYSLTISNLEPEDIATYYCQQYDRLPWTFGGGTKLEIK
notes: also called 936.17H1G2
B5: ACI-8016-19E6D4-AB1 (antibody, V domains shown)
VH: EVKLVESGGGLVQPGGSLKLSCAASGFTFSDYYMYWVRQNAEKRLEWVAYISSGGDAPFYSDNLKGRFTISRDNAKNTLYLQMSRLQPEDTAMYFCAREGFYYYGLYGMDYWGQGTSVTVSS
VL: DIVLSQSPATLSVTPGDSVSLSCRASQSIGDNLHWYQQKSHESPRLIIKSASQSISGIPSRFSGSGSGTDFTLSINIVETEDFGMYFCQQSDTWPLTFGPGTKLELK
notes: also called 936.19E6D4
B6: ACI-8016-3E6B11-AB1 (antibody, V domains shown)
VH: EVQLQQSGAELVRPGSSVKMSCKTSGYTFTNYGITWVKQRPGQGLEWIGYIYVGNGYTEYNEKFKDKAALTSDTSSSTAYMQLTSLTSDDSTIYFCARIAQGRCFDYWGQGTTLSVSS
VL: DIVLTQSPASSAVSLGQRATISCRASQSVSTSSYSYMHWYQQKPGQPPKLLIKYASTLESGVPARFSGSGSGTDFTLNIHPVEEEDTATYYCQHSWELPYMFGGGTKLEIK
notes: also called 936.3E6B11
B7: ACI-8016-2602H6F10-AB1 (antibody, V domains shown)
VH: QVQLQQSGAELARPGASVKLSCKASGFSFTSYGISWVKQRTGQGLEWIGQIYLRSSNTYYNEKFKDKATLTADKSSSTVYMELRSLTSEDSAVYFCARYYGSSSDYWGQGTTLTVSS
VL: DIQMNQSPSSLSASLGDTITINCHASQNINVWLSWYQQKPGNIPKVLIYQASNLQTGVPTRFSGSGSGTGFTLTISRLQPEDIATYYCQQGQRYPWTFGGGTKLEIK
B8: ACI-8018-2221B7F1-AB1 (antibody, V domains shown)
VH: EVQLVESGGGLVKPGGSLKLSCAASGFTFSDSYMYWLRQTPEKRLEWVASISDGGRYTYYSDSVKGRFTISRDNVKNNLYLQMTSLRSEDTAIYYCARGLDYWGQGTTLTVSS
VL: DIKMTQSPSSMYASLGERVTITCKASQDINSYLSWFQQKPGKSPKTLIYRANRLVDGVPSRFSGSGSGQDYSLTISSLEYEDMGIYYCLQYAESTWTFGGGTKLEIK
B9: ACI-8016-2A1B12-AB1 (antibody, V domains shown)
VH: EVQLQQSGAELVRPGSSVKMSCETSGYTFTTYGLTWVKQRPGQGLEWIGYIYVGNGYTEYNEKFKDKATLTSDTSSSIVYMQLSSLTSEDSAIYFCARLGLRRHFDYWGQGTTLTVSS
VL: AIQMTQTTSSLSASLGDRVTISCRASQDISNYLHWYQQKPDGTVKLLIFFTSGLRSGVPSRFSGSGSGTDYSLTISNLEQEDIATYFCQQSILLPWTFGGGTKLEIK
notes: also called 936.2A1B12
B10: ACI-8016-32B6C7-AB1 chimeric Fab (Fab, V domains shown)
VH: QVQLQQSDAELVKPGASVKISCKISGYTFTDQTIHWMNQRPEQGLEWIGYIYPGDGSAMYNEKFRGKATLTADKSSSTAYMQLNSLTSEDSAVYFCARPLYSYASYYWFAYWGQGTLVTVSA
VL: B1 VL with Q38R, V43I, A51S, K53N, S59P, N61R, G84A, Y96L
notes: Fab
B11: hACI-8016-32B6C7-AB1_H9L3 Fab (Fab, V domains shown)
VH: EVQLVQSGAEVKKPGESLKISCKISGYSFTDQTIHWVHQMPGKGLEWMGYIYPGDGSAMYNEKFQGQVTISADKSISTAYLQWSSLKASDTAMYYCARPLYSYASYYWFAYWGQGTLVTVSS
VL: EIVLTQSPATLSLSPGERATLSCHASQNINVWLSWYQQKPGQAPRLLIYKSSNLHTGIPARFSGSGSGTDFTLTISSLEPEDFAVYYCQQGQSYPLTFGQGTKLEIK
B12: hACI-8016-32B6C7-AB1_H5L4 Fab (Fab, V domains shown)
VH: QVQLVQSGAEVKKPGSSVKVSCKISGYTFTDQTIHWVRQAPGQGLEWMGYIYPGDGSAMYNEKFQGRVTITADKSTSTAYMELSSLRSEDTAVYYCARPLYSYASYYWFAYWGQGTLVTVSS
VL: B11 VL with W32Y
B13: hACI-8016-32B6C7-AB1_H13L4 Fab (Fab, V domains shown)
VH: B11 VH with G56S
VL: B11 VL with W32Y
B14: hACI-8016-32B6C7-AB1_H7L4 Fab (Fab, V domains shown)
VH: B12 VH with G56S
VL: B11 VL with W32Y
B15: hACI-8016-32B6C7-AB1_H9L4 Fab (Fab, V domains shown)
VH: B11 VH
VL: B11 VL with W32Y
B16: hACI-8016-32B6C7-AB1_H13L3 Fab (Fab, V domains shown)
VH: B11 VH with G56S
VL: B11 VL
B17: hACI-8016-32B6C7-AB1_H6L3 Fab (Fab, V domains shown)
VH: B12 VH with I24A
VL: B11 VL
B18: hACI-8016-32B6C7-AB1_H2L3 Fab (Fab, V domains shown)
VH: B11 VH with S28T
VL: B11 VL
B19: hACI-8016-32B6C7-AB1_H8L4 Fab (Fab, V domains shown)
VH: B12 VH with G56A
VL: B11 VL with W32Y
B20: hACI-8016-32B6C7-AB1_H4L3 Fab (Fab, V domains shown)
VH: B12 VH with T28S
VL: B11 VL
B21: hACI-8016-32B6C7-AB1_H15L3 Fab (Fab, V domains shown)
VH: B12 VH with I24A, G56A
VL: B11 VL
B22: hACI-8016-32B6C7-AB1_H14L3 Fab (Fab, V domains shown)
VH: B12 VH with I24A, G56S
VL: B11 VL
B23: hACI-8016-32B6C7-AB1_H6L4 Fab (Fab, V domains shown)
VH: B12 VH with I24A
VL: B11 VL with W32Y

Target: T3, human ASC (apoptosis associated speck-like protein containing a caspase-recruitment domain) (human, UniProt Q9ULZ3 1-195)
T3 construct: recombinant hASC in ELISA and SPR; endogenous ASC (cytoplasmic or specks) in Western blot and immunofluorescence; also called hASC; PYCARD
T3 sequence (Q9ULZ3 whole entry, the tested form may be a part): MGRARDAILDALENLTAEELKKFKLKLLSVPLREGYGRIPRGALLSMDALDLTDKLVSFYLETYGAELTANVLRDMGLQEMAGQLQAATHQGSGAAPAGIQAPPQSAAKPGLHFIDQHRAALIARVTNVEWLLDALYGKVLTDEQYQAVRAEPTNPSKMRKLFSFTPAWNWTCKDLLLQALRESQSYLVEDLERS
Experiment: ELISA, coated hASC;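 note: antibody binding to plate-coated recombinant human ASC, read as phosphatase substrate absorbance, EC50 from four-parameter variable-slope fit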

Row | EC50 [nM] | Binder
1 | 1.98 | B1
2 | 0.07 | B2
3 | 0.1 | B3
4 | 0.13 | B4
5 | 0.1 | B5
6 | 0.15 | B6
7 | 11.1 | B7
8 | 0.14 | B8
9 | 0.17 | B9

Target: T4, PYD domain of human ASC (human, UniProt Q9ULZ3 1-91, limits assumed)
T4 construct: biotinylated in BLI; His/MBP-tagged in the alanine ELISA; also called hPYD; human PYD
T4 sequence (Q9ULZ3 1-91 limits assumed): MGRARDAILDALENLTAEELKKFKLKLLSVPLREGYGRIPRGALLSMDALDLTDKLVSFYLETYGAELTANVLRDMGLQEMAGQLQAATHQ
Experiment: ELISA, coated hPYD;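 note: monoclonal antibody binding to plate-coated human ASC PYD measured by ELISA, with a phosphatase substrate absorbance read-out and EC50 from a variable slope curve fit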

Row | EC50 [nM] | binding result | Binder
10 | 0.12 |  | B3
11 |  | no binding | B4
12 |  | no binding | B5
13 |  | no binding | B6
14 | 2.52 |  | B7
15 | 3.34 |  | B9

Target: T1, mouse ASC
Experiment: ELISA, coated mASC

Row | EC50 [nM] | binding result | Binder
16 | 2.67 |  | B1
17 |  | no binding | B2
18 | 0.11 |  | B3
19 | 0.19 |  | B4
20 |  | no binding | B5
21 | 0.15 |  | B6
22 | 4.52 |  | B7
23 |  | no binding | B8
24 | 1.56 |  | B9

Target: T2, CARD domain of human ASC
Experiment: ELISA, coated hCARD

Row | EC50 [nM] | binding result | Binder
25 | 2.21 |  | B1
26 |  | no binding | B3
27 | 0.1 |  | B4
28 | 0.09 |  | B5
29 | 0.13 |  | B6
30 |  | no binding | B7
31 | 0.13 |  | B9

Target: T3, human ASC (apoptosis associated …)
Experiment: SPR, hASC immobilized, Fab in flow;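 note: hASC amine-coupled on a CM5 chip (about 500 RU), Fab analytes measured by single-cycle kinetics in PBS-P+ running buffer, glycine pH 1.7 regeneration between Fabs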

Row | Kd [nM] | koff [s⁻¹] | kon [M⁻¹ s⁻¹] | Binder
32 | 1.01 | 2.11e-05 | 20900 | B10
33 | 0.091 | 8.87e-06 | 99100 | B11
34 | 0.079 | 6.68e-06 | 84500 | B12
35 | 0.084 | 7.09e-06 | 84100 | B13
36 | 0.067 | 5.62e-06 | 84300 | B14
37 | 0.081 | 7.52e-06 | 92000 | B15
38 | 0.077 | 8.01e-06 | 105000 | B16
39 | 0.086 | 7.52e-06 | 87200 | B17
40 | 0.105 | 8.64e-06 | 82200 | B18
41 | 0.077 | 7.03e-06 | 94000 | B19
42 | 0.077 | 8.16e-06 | 108000 | B20
43 | 0.052 | 4.82e-06 | 103000 | B21
44 | 0.049 | 4.96e-06 | 101000 | B22
45 | 0.067 | 5.28e-06 | 79200 | B23
